Results as given in US12091446 (NATIONAL TECHNOLOGY AND ENGINEERING SOLUTIONS OF SANDIA, dated 2024).
Residue numbers refer to the chain shown, from its start. Read-outs that look alike come from different tables or passages of the source.

Columns and labels:
[1] = molecular target: T1, SARS-COV-2 spike, Wuhan (original) (SARS-COV-2, UniProt P0DTC2 14-1273); test: cell-based or functional assay
[2] = molecular target: T1, SARS-COV-2 spike, Wuhan (original); test: cell-based or functional assay; remark: listed apart in the source

B1: KP2C6 Nb-huFc (Fc fusion)
chain: EVQLQASGGGFVQPGGSLRLSCAASGRTFTSFHMGWFRQAPGKEREFVSAISSGDDGTQYYADSVKGRFTISRDNSKNTVYLQMNSLRAEDTATYYCAAYTTTTVPQYWGQGTQVTVSS
In the case of B1, the “EC50, neutralization of spike pseudotyped virus” value (“EC50, neutralization” for short) [1] is reported as 517 nM.

B2: KP1B5 Nb-huFc (Fc fusion)
chain: EVQLQASGGGFVQPGGSLRLSCAASGFTFDWSAMGWFRQAPGKEREFVSAISSSTSESTTYADSVKGRFTISRDNSKNTVYLQMNSLRAEDTATYYCATYYGGKTVEQDFYWGQGTQVTVSS
For B2, the “EC50, neutralization” value [1] was 896 nM.

B3: AP1A5 Nb-huFc (Fc fusion)
chain: EVQLQASGGGFVQPGGSLRLSCAASGSTASHYTMGWFRQAPGKEREFVSAISSGRDHAKQYADSVKGRFTISRDNSKNTVYLQMNSLRAEDTATYYCAYEEINATQKDTLYWGQGTQVTVSS
For B3, the “EC50, neutralization” value [2] was 11.9 nM.

B4: DP4F2 Nb-huFc (Fc fusion)
chain: EVQLQASGGGFVQPGGSLRLSCAASGTTYSERVMGWFRQAPGKEREFVSAISSGQSDQTYYYADSVKGRFTISRDNSKNTVYLQMNSLRAEDTATYYCAPFAGDANLPREWYWGQGTQVTVSSA
B4 was tested, and the “EC50, neutralization” value [1] was 65.8 nM.

B5: BP1B1 Nb-huFc (Fc fusion)
chain: EVQLQASGGGFVQPGGSLRLSCAASGRTFSGYIMGWFRQAPGKEREFVSAISQGDSYASYYADSVKGRFTISRDNSKNTVYLQMNSLRAEDTATYYCALYDINTVPYYWGQGTQVTVSS
B5 was tested, and the “EC50, neutralization” value [1] was 4.13 nM.

B6: BP1A10 Nb-huFc (Fc fusion)
chain: EVQLQASGGGFVQPGGSLRLSCAASGQPSDRYIMGWFRQAPGKEREFVSAISQGAANKTAYADSVKGRFTISRDNSKNTVYLQMNSLRAEDTATYYCATHFNWQNYSYWGQGTQVTVSS
B6 was tested, and the “EC50, neutralization” value [2] was 8.38 nM.

B7: AP1B6 Nb-huFc (Fc fusion)
chain: EVQLQASGGGFVQPGGSLRLSCAASGSAFQIYAMGWFRQAPGKEREFVSAISSTDSETDHYADSVKGRFTISRDNSKNTVYLQMNSLRAEDTATYYCAVNGFDYAHSKAGPQVYWGQGTQVTVSS
B7 was tested, and the “EC50, neutralization” value [2] was 3.32 nM.

B8: BP2A3 Nb-huFc (Fc fusion)
chain: EVQLQASGGGFVQPGGSLRLSCAASGRTFSAYSMGWFRQAPGKEREFVSAISAGDGAASYYADSVKGRFTISRDNSKNTVYLQMNSLRAEDTATYYCAHYYTTSATLDYAYWGQGTQVTVSS
B8 was tested, and the “EC50, neutralization” value [1] was 58.5 nM.

B9: BP2A6 Nb-huFc (Fc fusion)
chain: EVQLQASGGGFVQPGGSLRLSCAASGQTFSHYIMGWFRQAPGKEREFVSAISAGQGHATYYADSVKGRFTISRDNSKNTVYLQMNSLRAEDTATYYCAKYQDTIAPLYWGQGTQVTVSS
With B9 the “EC50, neutralization” value [2] was 0.77 nM.

B10: AP1D4 Nb-huFc (Fc fusion)
chain: EVQLQASGGGFVQPGGSLRLSCAASGHTFDAHRMGWFRQAPGKEREFVSAISSWGQSSTYYADSVKGRFTISRDNSKNTVYLQMNSLRAEDTATYYCAQTDEGNQYVYWGQGTQVTVSS
B10 was tested, and the “EC50, neutralization” value [2] was 6.62 nM.

B11: KP1C9 Nb-huFc (Fc fusion)
chain: EVQLQASGGGFVQPGGSLRLSCAASGRTFDAYSMGWFRQAPGKEREFVSAISSWSDDWTAYADSVKGRFTISRDNSKNTVYLQMNSLRAEDTATYYCALQNTKEDRLYWGQGTQVTVSS
For B11, the “EC50, neutralization” value [1] was 2.89 nM.

B12: AP1C3 Nb-huFc (Fc fusion)
chain: B11 chain with F29Y, D30R, A31G, L99W, N101Y, T102I, K103D, D105I, R106Q, L107Y
For B12, the “EC50, neutralization” value [2] was 1.04 nM.
